# According to US20210246166A1 (Bayer, published 2021):
# Numbered stars: 1 amine (or outer) side, 2 acyl side, 3 side chain; on linkers, the order of the positions; unused ones are H or OH. Bridge positions count the residues as written; N and C are the ends. Square brackets hold non-standard residues; d marks the D form. Ends that are not written are not given here. cPrCO(1-aminomethyl) = O=C(C1(CN[*:1])CC1)[*:2]; Oic = O=C(O)[C@@H]1C[C@@H]2CCCC[C@@H]2N1; Phe(2-Br) = N[C@@H](Cc1ccccc1Br)C(=O)O; NMeI = CC[C@H](C)[C@H](NC)C(=O)O; tBuAla = CC(C)(C)C[C@H](N)C(=O)O; Pen = CC(C)(S)[C@H](N)C(=O)O; NMeC = CN[C@@H](CS)C(=O)O; PEG3 = NCCOCCOCCOCCC(=O)O; NMeA = CN[C@@H](C)C(=O)O; Nle = CCCC[C@H](N)C(=O)O; Orn = NCCC[C@H](N)C(=O)O; Sar = CNCC(=O)O
# T1: recombinant human MASP1 active protease (amino acids 297-699, C-terminal His Tag) (human, UniProt P48740 297-699)
# T1 sequence: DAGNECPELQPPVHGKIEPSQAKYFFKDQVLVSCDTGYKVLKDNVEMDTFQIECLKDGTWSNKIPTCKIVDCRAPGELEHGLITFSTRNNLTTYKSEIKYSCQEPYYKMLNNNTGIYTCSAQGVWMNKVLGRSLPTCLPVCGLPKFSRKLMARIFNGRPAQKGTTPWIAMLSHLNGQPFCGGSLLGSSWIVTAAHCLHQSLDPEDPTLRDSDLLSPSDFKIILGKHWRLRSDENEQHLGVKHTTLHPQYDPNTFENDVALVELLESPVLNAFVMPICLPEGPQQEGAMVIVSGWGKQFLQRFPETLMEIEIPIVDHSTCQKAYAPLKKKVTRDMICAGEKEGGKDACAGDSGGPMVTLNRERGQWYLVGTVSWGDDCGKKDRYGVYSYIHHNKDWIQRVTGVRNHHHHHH
# Tests used:
# [1] = target: recombinant human MASP2 active protease (amino acids 297-686, C-terminal His Tag) (human, UniProt O00187 297-686); experiment: cell-based or functional assay
# [2] = target: T1, recombinant human MASP1 active protease …; experiment: cell-based or functional assay
# Chain of recombinant human MASP2 active protease (amino acids 297-686, C-terminal His Tag) (O00187 other isoform, or with tags, fused parts or gaps limits assumed): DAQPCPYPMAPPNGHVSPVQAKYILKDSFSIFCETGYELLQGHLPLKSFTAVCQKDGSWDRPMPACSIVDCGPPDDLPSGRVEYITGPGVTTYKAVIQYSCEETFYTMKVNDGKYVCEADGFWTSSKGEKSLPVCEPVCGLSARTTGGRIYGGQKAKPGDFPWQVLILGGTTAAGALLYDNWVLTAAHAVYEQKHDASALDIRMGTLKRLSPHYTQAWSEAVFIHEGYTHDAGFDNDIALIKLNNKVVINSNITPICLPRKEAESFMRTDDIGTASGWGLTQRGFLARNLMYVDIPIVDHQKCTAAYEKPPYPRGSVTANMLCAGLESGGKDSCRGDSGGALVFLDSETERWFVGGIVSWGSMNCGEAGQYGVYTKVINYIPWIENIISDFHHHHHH
human MASP2 IC50 [1],human MASP1 IC50 [2],Binder
150 nM,2.8 nM,AICSRSLP[Oic]I[Pen]IPE-NH2 (disulfide 3-11; N-terminus assumed; SMILES CC[C@H](C)[C@H](NC(=O)[C@H](C)N)C(=O)N[C@H]1CSSC(C)(C)[C@@H](C(=O)N[C@H](C(=O)N2CCC[C@H]2C(=O)N[C@@H](CCC(=O)O)C(N)=O)[C@@H](C)CC)NC(=O)[C@H]([C@@H](C)CC)NC(=O)[C@@H]2C[C@@H]3CCCC[C@@H]3N2C(=O)[C@@H]2CCCN2C(=O)[C@H](CC(C)C)NC(=O)[C@H](CO)NC(=O)[C@H](CCCNC(=N)N)NC(=O)[C@H](CO)NC1=O) [AIC+SRSLP-(Oic)-I-(Pen)+IPE-NH2]
360 nM,2.6 nM,[cPrCO(1-aminomethyl)]ICSRS[tBuAla]PPI[NMeC]I-NH2 (disulfide 3-11; N-terminus assumed; SMILES CC[C@H](C)[C@H](NC(=O)[C@@H]1CSSC[C@H](NC(=O)[C@@H](NC(=O)C2(CN)CC2)[C@@H](C)CC)C(=O)N[C@@H](CO)C(=O)N[C@@H](CCCNC(=N)N)C(=O)N[C@@H](CO)C(=O)N[C@@H](CC(C)(C)C)C(=O)N2CCC[C@H]2C(=O)N2CCC[C@H]2C(=O)N[C@@H]([C@@H](C)CC)C(=O)N1C)C(N)=O) [(ACMP)-IC+SRS-((tBu)A)-PPI-((N-Me)C)+I-NH2]
320 nM,2.7 nM,[Sar][NMeI]CSRS[tBuAla]PPI[Pen]I-NH2 (disulfide 3-11; N-terminus assumed; SMILES CC[C@H](C)[C@H](NC(=O)[C@H]1NC(=O)[C@H]([C@@H](C)CC)NC(=O)[C@@H]2CCCN2C(=O)[C@@H]2CCCN2C(=O)[C@H](CC(C)(C)C)NC(=O)[C@H](CO)NC(=O)[C@H](CCCNC(=N)N)NC(=O)[C@H](CO)NC(=O)[C@@H](NC(=O)[C@H]([C@@H](C)CC)N(C)C(=O)CNC)CSSC1(C)C)C(N)=O) [((N-Me)G)-((N-Me)I)-C+SRS-((tBu)A)-PPI-(Pen)+I-NH2]
145 nM,2.8 nM,[NMeA]ICSRSLP[Oic]I[Pen]IPD-NH2 (disulfide 3-11; N-terminus assumed; SMILES CC[C@H](C)[C@H](NC(=O)[C@H](C)NC)C(=O)N[C@H]1CSSC(C)(C)[C@@H](C(=O)N[C@H](C(=O)N2CCC[C@H]2C(=O)N[C@@H](CC(=O)O)C(N)=O)[C@@H](C)CC)NC(=O)[C@H]([C@@H](C)CC)NC(=O)[C@@H]2C[C@@H]3CCCC[C@@H]3N2C(=O)[C@@H]2CCCN2C(=O)[C@H](CC(C)C)NC(=O)[C@H](CO)NC(=O)[C@H](CCCNC(=N)N)NC(=O)[C@H](CO)NC1=O) [((N-Me)A)-IC+SRSLP-(Oic)-I-(Pen)+IPD-NH2]
23 nM,1.1 nM,[Sar]ICSRSLP[Oic]I[Pen]IP[PEG3]-NH2 (disulfide 3-11; N-terminus assumed; SMILES CC[C@H](C)[C@H](NC(=O)CNC)C(=O)N[C@H]1CSSC(C)(C)[C@@H](C(=O)N[C@H](C(=O)N2CCC[C@H]2C(=O)NCCOCCOCCOCCC(N)=O)[C@@H](C)CC)NC(=O)[C@H]([C@@H](C)CC)NC(=O)[C@@H]2C[C@@H]3CCCC[C@@H]3N2C(=O)[C@@H]2CCCN2C(=O)[C@H](CC(C)C)NC(=O)[C@H](CO)NC(=O)[C@H](CCCNC(=N)N)NC(=O)[C@H](CO)NC1=O) [((N-Me)G)-IC+SRSLP-(Oic)-I-(Pen)+IP-(PEG2(13 atoms))-NH2]
69.6 nM,2.9 nM,[Sar]ICSRSLP[Oic]I[Pen]IP-NH2 (disulfide 3-11; also: TFA salt) [((N-Me)G)-IC+SRSLP-(Oic)-I-(Pen)+IP-NH2]
230 nM,2.8 nM,SICSRS[tBuAla]PPI[NMeC]I-NH2 (disulfide 3-11; N-terminus assumed; SMILES CC[C@H](C)[C@H](NC(=O)[C@@H]1CSSC[C@H](NC(=O)[C@@H](NC(=O)[C@@H](N)CO)[C@@H](C)CC)C(=O)N[C@@H](CO)C(=O)N[C@@H](CCCNC(=N)N)C(=O)N[C@@H](CO)C(=O)N[C@@H](CC(C)(C)C)C(=O)N2CCC[C@H]2C(=O)N2CCC[C@H]2C(=O)N[C@@H]([C@@H](C)CC)C(=O)N1C)C(N)=O) [SIC+SRS-((tBu)A)-PPI-((N-Me)C)+I-NH2]
48 nM,2.8 nM,AICSRS[Phe(2-Br)]PPI[Pen]IPD-NH2 (disulfide 3-11; N-terminus assumed; SMILES CC[C@H](C)[C@H](NC(=O)[C@H](C)N)C(=O)N[C@H]1CSSC(C)(C)[C@@H](C(=O)N[C@H](C(=O)N2CCC[C@H]2C(=O)N[C@@H](CC(=O)O)C(N)=O)[C@@H](C)CC)NC(=O)[C@H]([C@@H](C)CC)NC(=O)[C@@H]2CCCN2C(=O)[C@@H]2CCCN2C(=O)[C@H](Cc2ccccc2Br)NC(=O)[C@H](CO)NC(=O)[C@H](CCCNC(=N)N)NC(=O)[C@H](CO)NC1=O) [AIC+SRS-((2-Bromo)F)-PPI-(Pen)+IPD-NH2]
50 nM,1.14 nM,PICSRS[tBuAla]PPI[Pen]IPD-NH2 (disulfide 3-11; N-terminus assumed; SMILES CC[C@H](C)[C@H](NC(=O)[C@@H]1CCCN1)C(=O)N[C@H]1CSSC(C)(C)[C@@H](C(=O)N[C@H](C(=O)N2CCC[C@H]2C(=O)N[C@@H](CC(=O)O)C(N)=O)[C@@H](C)CC)NC(=O)[C@H]([C@@H](C)CC)NC(=O)[C@@H]2CCCN2C(=O)[C@@H]2CCCN2C(=O)[C@H](CC(C)(C)C)NC(=O)[C@H](CO)NC(=O)[C@H](CCCNC(=N)N)NC(=O)[C@H](CO)NC1=O) [PIC+SRS-((tBu)A)-PPI-(Pen)+IPD-NH2]
92 nM,2.6 nM,[dA]ICSRSLP[Oic]I[Pen]I-OH (disulfide 3-11; N-terminus assumed; SMILES CC[C@H](C)[C@H](NC(=O)[C@H]1NC(=O)[C@H]([C@@H](C)CC)NC(=O)[C@@H]2C[C@@H]3CCCC[C@@H]3N2C(=O)[C@@H]2CCCN2C(=O)[C@H](CC(C)C)NC(=O)[C@H](CO)NC(=O)[C@H](CCCNC(=N)N)NC(=O)[C@H](CO)NC(=O)[C@@H](NC(=O)[C@@H](NC(=O)[C@@H](C)N)[C@@H](C)CC)CSSC1(C)C)C(=O)O) [aIC+SRSLP-(Oic)-I-(Pen)+I-OH]
2800 nM,2.8 nM,"AICSRSLP[rel‑(1R,3R,5R,6R)‑6‑(Trifluoromethyl)‑2‑azabicyclo(3.1.0)hexane‑3‑carboxylic acid]ICIPD-NH2 (disulfide 3-11)"
38 nM,2.6 nM,[Nle]ICSRS[tBuAla]PPI[Pen]IPD-NH2 (disulfide 3-11; N-terminus assumed; SMILES CCCC[C@H](N)C(=O)N[C@H](C(=O)N[C@H]1CSSC(C)(C)[C@@H](C(=O)N[C@H](C(=O)N2CCC[C@H]2C(=O)N[C@@H](CC(=O)O)C(N)=O)[C@@H](C)CC)NC(=O)[C@H]([C@@H](C)CC)NC(=O)[C@@H]2CCCN2C(=O)[C@@H]2CCCN2C(=O)[C@H](CC(C)(C)C)NC(=O)[C@H](CO)NC(=O)[C@H](CCCNC(=N)N)NC(=O)[C@H](CO)NC1=O)[C@@H](C)CC) [(Nle)-IC+SRS-((tBu)A)-PPI-(Pen)+IPD-NH2]
83 nM,2.6 nM,AICSRS[tBuAla]PPI[Pen]IPD-NH2 (disulfide 3-11; N-terminus assumed; SMILES CC[C@H](C)[C@H](NC(=O)[C@H](C)N)C(=O)N[C@H]1CSSC(C)(C)[C@@H](C(=O)N[C@H](C(=O)N2CCC[C@H]2C(=O)N[C@@H](CC(=O)O)C(N)=O)[C@@H](C)CC)NC(=O)[C@H]([C@@H](C)CC)NC(=O)[C@@H]2CCCN2C(=O)[C@@H]2CCCN2C(=O)[C@H](CC(C)(C)C)NC(=O)[C@H](CO)NC(=O)[C@H](CCCNC(=N)N)NC(=O)[C@H](CO)NC1=O) [AIC+SRS-((tBu)A)-PPI-(Pen)+IPD-NH2]
130 nM,2.8 nM,AICSRS[tBuAla]P[Oic]I[Pen]IPD-NH2 (disulfide 3-11; N-terminus assumed; SMILES CC[C@H](C)[C@H](NC(=O)[C@H](C)N)C(=O)N[C@H]1CSSC(C)(C)[C@@H](C(=O)N[C@H](C(=O)N2CCC[C@H]2C(=O)N[C@@H](CC(=O)O)C(N)=O)[C@@H](C)CC)NC(=O)[C@H]([C@@H](C)CC)NC(=O)[C@@H]2C[C@@H]3CCCC[C@@H]3N2C(=O)[C@@H]2CCCN2C(=O)[C@H](CC(C)(C)C)NC(=O)[C@H](CO)NC(=O)[C@H](CCCNC(=N)N)NC(=O)[C@H](CO)NC1=O) [AIC+SRS-((tBu)A)-P-(Oic)-I-(Pen)+IPD-NH2]
130 nM,2.6 nM,[Orn]ICSRS[tBuAla]PPI[NMeC]I-NH2 (disulfide 3-11; N-terminus assumed; SMILES CC[C@H](C)[C@H](NC(=O)[C@@H]1CSSC[C@H](NC(=O)[C@@H](NC(=O)[C@@H](N)CCCN)[C@@H](C)CC)C(=O)N[C@@H](CO)C(=O)N[C@@H](CCCNC(=N)N)C(=O)N[C@@H](CO)C(=O)N[C@@H](CC(C)(C)C)C(=O)N2CCC[C@H]2C(=O)N2CCC[C@H]2C(=O)N[C@@H]([C@@H](C)CC)C(=O)N1C)C(N)=O) [(Orn)-IC+SRS-((tBu)A)-PPI-((N-Me)C)+I-NH2]
